B1: library; numbered along this chain (parent)
chain: MRKPRAAVGSGHRKQAASQEGRQKHAKNNSQAKPSACDGLARQPEEVVLQASVSSYHLFRDVAEVTAFRGSLLSWYDQEKRDLPWRRRAEDEMDLDRRAYAVWVSEVMLQQTQVATVINYYTGWMQKWPTLQDLASASLEEVNQLWAGLGYYSRGRRLQEGARKVVEELGGHMPRTAETLQQLLPGVGRYTAGAIASIAFGQATGVVDGNVARVLCRVRAIGADPSSTLVSQQLWGLAQQLVDPARPGDFNQAAMELGATVCTPQRPLCSQCPVESLCRARQRVEQEQLLASGSLSGSPDVEECAPNTGQCHLCLPPSEPWDQTLGVVNFPRKASRKPPREESSATCVLEQPGALGAQILLVQRPNSGLLAGLWEFPSVTWEPSEQLQRKALLQELQRWAGPLPATHLRHLGEVVHTFSHIKLTYQVYGLALEGQTPVTTVPPGARWLTQEEFHTAAVSTAMKKVFRVYQGQQPGTCMGSKRSQVSSPCSRKKPRMGQQVLDNFFRSHISTDAHSLNSAAQ

Variants of: B1
Test: 8OG:A repair function score (normalized; synonymous = 0, nonsense = -1) (normalized log-likelihood score); higher = more repair activity (WT-like)
Details: with 8OG:A DNA repair reporter (GFP) in HEK-293 MUTYH KO cells
Method in brief: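 MUTYH knockout HEK-293 cells carrying lentiviral MUTYH cDNA NNN codon-scan libraries were grown with 10 pg/ml doxycycline and co-transfected with mCherry and a GFP reporter of 8OG:A repair. Viable mCherry+ cells were sorted at 72 h into GFP+ (repair) and GFP− bins, with three replicates per tile, and tile amplicons were sequenced. Rosace fitness scores for each tile were turned into a normalized repair function score anchored on the synonymous and nonsense distributions. Synonymous medians were set to 0 and nonsense medians to -1, and variants below 300 counts per million at the start were dropped.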

Variant | 8OG:A repair function score
E160K | -0.0797
E160F | -0.0745
E160G | -0.116
E160D | -0.104
E160Y | -0.063
E160N | -0.0629
E160L | -0.0898
E160R | -0.136
E160M | 0.0471
E160C | -0.0918
E160V | -0.00913
E160S | -0.0339
E160Q | 0.018
E160P | -0.814
E160T | -0.0143
E160W | 0.0263
E160H | -0.264
E160I | -0.0174
E160A | 0.0427
R157Q | -0.117
R157V | -0.362
R157T | -0.216
R157D | -0.365
R157K | -0.0295

Variant | 8OG:A repair function score
R157E | -0.665
R157N | 0.023
R157C | -0.297
R157W | -0.0111
R157A | -0.14
R157H | -0.0973
R157S | -0.182
R157G | -0.381
R157P | -1.11
R157Y | -0.068
R157M | -0.0764
R157F | -0.0928
R157I | -0.517
R157L | -0.141
R156N | -0.179
R156D | -0.477
R156W | -0.133
R156C | -0.162
R156M | -0.207
R156I | -0.152
R156H | -0.0809
R156E | -0.319
R156Q | -0.136
R156A | -0.122

Variant | 8OG:A repair function score
R156Y | -0.337
R156T | -0.238
R156F | -0.3
R156S | -0.193
R156L | -0.142
R156K | 0.00226
R156P | -0.341
R156V | -0.117
R156G | -0.287
Q159L | 0.127
Q159P | -0.377
Q159N | -0.144
Q159S | -0.121
Q159K | 0.0628
Q159D | -0.824
Q159V | 0.0456
Q159E | -0.416
Q159A | -0.0252
Q159G | -0.279
Q159F | 0.0628
Q159R | 0.162
Q159W | 0.287
Q159Y | 0.116
Q159M | 0.0724

Variant | 8OG:A repair function score
Q159H | 0.0232
Q159I | 0.0245
Q159T | -0.0681
Q159C | 0.0194
Y151Q | -0.672
Y151N | -1.33
Y151W | -0.534
Y151I | -0.244
Y151G | -1.03
Y151S | -1.29
Y151V | -0.583
Y151M | -0.45
Y151L | -0.0762
Y151D | -1
Y151H | -0.509
Y151F | -0.064
Y151E | -1.21
Y151P | -1.25
Y151C | -0.944
Y151T | -0.587
Y151A | -0.816
Y151K | -0.808
Y151R | -0.389
G148L | -1.31

Variant | 8OG:A repair function score
G148R | -0.782
G148H | -0.166
G148C | -0.72
G148I | -1.27
G148S | -0.286
G148D | -0.544
G148V | -1.08
G148A | -0.564
G148N | -0.669
G148T | -0.549
G148P | -1.1
G148E | -0.792
G148Q | -0.44
G148M | -1.1
G148K | -0.475
G148Y | -0.677
G148W | -1.48
G148F | -0.794
R154Q | -1.06
R154C | -1.08
R154A | -0.88
R154I | -0.971
R154P | -1.06
R154W | -1.03

Variant | 8OG:A repair function score
R154E | -1.23
R154V | -1.04
R154H | -0.851
R154S | -1.03
R154T | -1.16
R154G | -1.12
R154F | -1.05
R154Y | -1.21
R154K | -0.609
R154M | -1.16
R154N | -0.885
R154D | -1.11
R154L | -1.06
G150P | -1.54
G150N | -1.15
G150Q | -1.58
G150C | -0.982
G150I | -1.78
G150T | -1.35
G150R | -1.3
G150F | -1.66
G150E | -1.13
G150M | -1.44
G150D | -1.38

Variant | 8OG:A repair function score
G150V | -1.22
G150L | -1.18
G150S | -1.26
G150A | -1.42
G150Y | -0.803
G150W | -1.09
G150K | -1.27
G150H | -1.12
G161D | -0.688
G161N | -0.325
G161K | -1.07
G161R | -1.15
G161E | -0.898
G161W | -1.19
G161H | -1.12
G161V | -0.579
G161Y | -1.04
G161A | -0.00122
G161P | -0.919
G161Q | -0.911
G161L | -1.01
G161M | -0.776
G161T | -0.317
G161S | -0.13

Variant | 8OG:A repair function score
G161F | -1.03
G161I | -0.841
G161C | -0.293
L149R | -0.729
L149K | -1.17
L149Q | -1.06
L149A | -0.323
L149G | -0.743
L149E | -1.24
L149C | -0.585
L149V | -0.906
L149S | -0.335
L149I | -0.462
L149M | -0.664
L149P | -0.979
L149Y | -0.657
L149N | -0.783
L149W | -1.46
L149T | -0.81
L149F | -0.43
L149H | -1.82
L149D | -1.19
L158F | -0.384
L158T | -0.756

Variant | 8OG:A repair function score
L158D | -1.18
L158H | -0.935
L158K | -1.19
L158M | -0.194
L158I | -0.11
L158A | -0.675
L158Q | -1.31
L158E | -1.05
L158Y | -1.09
L158G | -1.15
L158W | -0.991
L158R | -1.09
L158V | -0.372
L158N | -1.2
L158C | -0.573
L158P | -0.951
L158S | -1.05
K164F | 0.104
K164N | -0.37
K164C | -0.21
K164H | -0.186
K164I | 0.0586
K164P | -1.12
K164L | 0.0383

Variant | 8OG:A repair function score
K164T | -0.103
K164M | 0.168
K164D | -0.483
K164E | -0.382
K164A | -0.133
K164R | -0.0158
K164S | -0.168
K164Q | -0.101
K164G | -0.431
A162Q | -0.953
A162S | -0.159
A162N | -0.917
A162Y | -1.22
A162W | -0.917
A162C | -0.175
A162P | -1.19
A162F | -1.26
A162K | -1.03
A162M | -0.887
A162D | -1.2
A162V | -0.278
A162L | -1
A162E | -1.14
A162I | -0.523

Variant | 8OG:A repair function score
A162T | -0.155
A162R | -1.02
A162G | -0.456
A162H | -1.08
S153F | 0.0735
S153H | -0.0258
S153R | -0.265
S153G | -0.237
S153K | -0.0744
S153I | -0.105
S153M | -0.237
S153V | -0.00826
S153P | 0.0253
S153D | -0.368
S153L | 0.0439
S153T | 0.158
S153A | 0.0766
S153N | -0.152
S153W | -0.198
S153E | -0.117
S153C | -0.074
S153Q | -0.127
S153Y | -0.143
A147Y | -0.549

Variant | 8OG:A repair function score
A147R | -0.11
A147K | -0.229
A147I | -0.125
A147L | -0.207
A147T | -0.154
A147S | 0.0618
A147V | -0.14
A147P | -0.734
A147W | -0.902
A147Q | 0.00492
A147H | -0.241
A147N | -0.0408
A147M | -0.0248
G155N | -0.213
G155L | -0.574
G155R | -0.543
G155Q | -0.682
G155P | -0.0172
G155C | -0.117
G155V | -0.116
G155H | -0.388
G155K | -0.654
G155T | -0.218
G155S | -0.0824

Variant | 8OG:A repair function score
G155D | -0.75
G155F | -0.526
G155W | -0.265
G155E | -0.691
G155I | -0.489
G155Y | -0.667
G155M | -0.629
G155A | 0.037
R163N | -0.164
R163F | -0.174
R163M | -0.0916
R163A | -0.182
R163Q | -0.143
R163C | -0.00395
R163T | -0.128
R163P | -0.887
R163G | -0.378
R163L | -0.128
R163H | -0.238
R163K | -0.132
R163D | -0.387
R163W | -0.296
R163E | -0.375
R163V | -0.0917

Variant | 8OG:A repair function score
R163S | -0.122
R163Y | -0.137
R163I | -0.115
Y152D | -1.08
Y152K | -1.07
Y152W | -0.762
Y152Q | -0.592
Y152T | -0.854
Y152M | -0.3
Y152V | -0.573
Y152L | -0.707
Y152F | -0.371
Y152A | -0.881
Y152P | -1.28
Y152I | -0.496
Y152H | -0.695
Y152R | -0.956
Y152N | -0.779
Y152G | -0.713
Y152E | -1.16
Y152C | -0.782
Y152S | -1.19

Source: the supplement of paper PMC11908140
